Here are results for 20 sequences from the DeepSol protein solubility set.

A short description of this data set: soluble on expression in E. coli; label from the status in PepcDB or PDB records.
“MLKFRTVHGGLRLLGIRRTSTAPAASPNVRRLEYKPIKKVMVANRGEIAIRVFRACTELGIRTVAIYSEQDTGQMHRQKADEAYLIGRGLAPVQAYLHIPDIIKVAKENNVDAVHPGYGFLSERADFAQACQDAGVRFIGPSPEVVRKMGDKVEARAIAIAAGVPVVPGTDAPITSLHEAHEFSNTYGFPIIFKAAYGGGGRGMRVVHSYEELEENYTRAYSEALAAFGNGALFVEKFIEKPRHIEVQILGDQYGNILHLYERDCSIQRRHQKVVEIAPAAHLDPQLRTRLTSDSVKLAKQVGYENAGTVEFLVDRHGKHYFIEVNSRLQVEHTVTEEITDVDLVHAQIHVSEGRSLPDLGLRQENIRINGCAIQCRVTTEDPARSFQPDTGRIEVFRSGEGMGIRLDNASAFQGAVISPHYDSLLVKVIAHGKDHPTAATKMSRALAEFRVRGVKTNIAFLQNVLNNQQFLAGTVDTQFIDENPELFQLRPAQNRAQKLLHYLGHVMVNGPTTPIPVKASPSPTDPVVPAVPIGPPPAGFRDILLREGPEGFARAVRNHPGLLLMDTTFRDAHQSLLATRVRTHDLKKIAPYVAHNFSKLFSMENWGGATFDVAMRFLYECPWRRLQELRELIPNIPFQMLLRGANAVGYTNYPDNVVFKFCEVAKENGMDVFRVFDSLNYLPNMLLGMEAAGSAGGVVEAAISYTGDVADPSRTKYSLQYYMGLAEELVRAGTHILCIKDMAGLLKPTACTMLVSSLRDRFPDLPLHIHTHDTSGAGVAAMLACAQAGADVVDVAADSMSGMTSQPSMGALVACTRGTPLDTEVPMERVFDYSEYWEGARGLYAAFDCTATMKSGNSDVYENEIPGGQYTNLHFQAHSMGLGSKFKEVKKAYVEANQMLGDLIKVTPSSKIVGDLAQFMVQNGLSRAEAEAQAEELSFPRSVVEFLQGYIGVPHGGFPEPFRSKVLKDLPRVEGRPGASLPPLDLQALEKELVDRHGEEVTPEDVLSAAMYPDVFAHFKDFTATFGPLDSLNTRLFLQGPKIAEEFEVELERGKTLHIKALAVSDLNRAGQRQVFFELNGQLRSILVKDTQAMKEMHFHPKALKDVKGQIGAPMPGKVIDIKVVAGAKVAKGQPLCVLSAMKMETVVTSPMEGTVRKVHVTKDMTLEGDDLILEIE”: the “soluble on expression in E. coli” value was “not soluble”.
The same measure for “MLKHIPKNISPDLLKTLMEMGHGDEIVLADANYPSASCANKLIRCDGVNIPELLDSILYLMPLDSYVDSSIQFMNVVSGDDIPKIWGTYRQMIEGHGTDLKTITYLRREDFYERSKKAYAIVATGETSLYANIILKKGVVVERENVQ”: “soluble”; for “MLKIFNTLTRQKEEFKPIHAGEVGMYVCGITVYDLCHIGHGRTFVAFDVVARYLRFLGYKLKYVRNITDIDDKIIKRANENGESFVAMVDRMIAEMHKDFDALNILRPDMEPRATHHIAEIIELTEQLIAKGHAYVADNGDVMFDVPTDPTYGVLSRQDLDQLQAGARVDVVDDKRNPMDFVLWKMSKEGEPSWPSPWGAGRPGWHIECSAMNCKQLGNHFDIHGGGSDLMFPHHENEIAQSTCAHDGQYVNYWMHSGMVMVDREKMSKSLGNFFTVRDVLKYYDAETVRYFLMSGHYRSQLNYSEENLKQARAALERLYTALRGTDKTVAPAGGEAFEARFIEAMDDDFNTPEAYSVLFDMAREVNRLKAEDMAAANAMASHLRKLSAVLGLLEQEPEAFLQSGAQADDSEVAEIEALIQQRLDARKAKDWAAADAARDRLNEMGIVLEDGPQGTTWRRK”: “soluble”; for “MLKPKEINTENKSKKRIYLSSPHMSDEGYEKQYINEAFETNWIAPLGKNVDEFEKELAAKVGIKAAAALSSGTAAIHMALKAAGVGEGDIVFCPTLTFAATANPIIYQNAIPVFIDSDYETWNMSPEALEEAFKKYPKVKAVLVVHLYGLSADMDKIVEICKKHDVQLIEDAAESLGTTYKGRYTGTIGDYGIYSFNGNKIITTSGGGMLVSDNEERIAKVRFWATQARDNARHYQHSELGYNYRMSNVIAGIGRGQLKVLDQRIEKKRYIFDFYKRELGCIDEIDFMPVNDWNKPNCWLTCITLTGKVRPLDVIIRLEEENIESRPVWKPMHMQPFYQHYDYIGSNVSEKIFENGVCLPSDTKMTDEDLYRVVNIIKGLWK”: “not soluble”.
With “MLKRCNFKNQVKYFQSDFEQLIRQHPEKIIILDFYATWCGPCKAIAPLYKELATTHKGIIFCKVDVDEAEDLCSKYDVKMMPTFIFTKNGDAIEALEGCVEDELRQKVLEHVSAQ”, the “soluble on expression in E. coli” value is “not soluble”.
Take “MLLAGLLASVEHGLNRVLRLDSTALPRLAALEGKVIEIDCRQPALQVFILPDEEGLMLAAHWQGEVDCRLRAPAGSLAQLALVKDKTAVLHSPQVELHGDSAVLLDLFGVLQDLELDWEHELQRWLGPVATAMLAGHIRLRARWTRQGLARFSQNLSEYLAEESRTLVGKREAEAAFSELDALKLDTERLEARLKRLSRSLDTSDNA”: the “soluble on expression in E. coli” value is reported as “not soluble”.
Turning to “MLLENGWIVGVKQVLSPHFDLRPEGEMPSLLVIHSISLPPSEFGGPYIDQLFTGTLNADEHPYFASIVHLRVSAHCLIRRDGEIIQYVPFDKRAWHAGVSVFAGRERCNDFSIGIELEGTDVLPFTPVQYQRLTEISAVLFAHYPITVERVAGHSEIAPGRKTDPGLAFDWFFYQQNLAKLLV”, the “soluble on expression in E. coli” value was “not soluble”.
Turning to “MLLNAVNQNQPTIAAEINYIKPNIQATFDLSTSKKSADTLTEQVDKRVVEITDARLLAKTATLKEDGFGLVANKYHMADYFDDAMVSTELYPQIIKHLMSLTNASKGVVFDHTIRSVEDKLHRAEKRSPIHTVHNDYVASSAQHRLHIELEKQGLKASDYHRYQFINTWIPLVDVVLDSPLAFADMRSVTSEQSHLLQVAYPDRVGEIEGFSYNPNNRWFYFSRMTSKEQLNFKVFDSDKSNAVNRTPHSAFLLPSVAENVQSRVSIELRTILLFNKLEHHHHHH”, the “soluble on expression in E. coli” value was “not soluble”.
As to “MLLSPPTNCRFFCFLYFPKVSSSSWEEDGFDARTLLSTPTDSSGFSLYVFSVLFCFSNLL”, the “soluble on expression in E. coli” value was “not soluble”.
As for “MLLSVIITAQGRKGYVMQAVRSVLSQNIPKEDFEIIVSKDFKDDVIDEFLDGRAIVLNENHIRSGSRVASAVLQSSGKILVFLDDDDLFYPGKLREVKIVFSEMGVDYFKNSVKPVAESGDTVSYYQPAIKSDIFVKEPNEQDIRKLLKLRAGFNSSSISLKKDILVGYLDVLSKINLAVDSFYFFLYMSHSRPIYYSKKTLSLYRVLSKSTSRDVRNINAYAEFKSKFYELYSRDFETISEMASDGPCSKLAKTEFHLQMAYKWIFNTYRKEERPRMLHTLASSIYSHDPFIALPWPSFMKKIVQRREYFREKKLLSENTELEHHHHHH”, the “soluble on expression in E. coli” value is recorded as “not soluble”.
Consider “MLLWVFEYNSVSRASWGDRVPVDKNSCACLEGGYAACLCGVAKSVKGRPVLRGVSLSVKFGEIHVLAGLNGAGKTTSLRVLVGLLSRDSGEARVLGVDPWGGGFERVKGEVGYLPEDASVYERLTGMENILFYARLYSGWRDVEELVENAVFYSGLSREDLARRAGGYSKGMKRRLLLGITLMSKPRLVVLDEPTSGVDPIASNRIKKILRGLSREGRAILVTTHDLALAEEIADRVTIIHGGSTVASGPPYRLVEEYCGETLEDAFVNIVTGGGC”, for which the “soluble on expression in E. coli” value is “soluble”.
Take “MLMNEFEKACETLRKFMAYMLEKDMKSWTELWDENAVFEFPYAPEGSPKRIEGKAAIYDYIKDYPKQIHLSSFTAPTVYRSADSNTVIAEFQCDGHVIETGLPYRQSYISVIETRDGRIVRYRDYWNPLVVKEAFGGSFLQTEESGK”: the “soluble on expression in E. coli” value is listed as “soluble”.
In the case of “MLMSIREDVVEATSSIVPEKIHSDARNFSLVTSSSQVRSPLYLKSLDADGEDNSTVEKQITHSKKVADTELDRSLECLKENENDVKTNGEVELSAVEDALIQVVPEVSENQNPRKIGPYDFDQHANFLNS” it was “not soluble”; in that of “MLNADLKQQLKQLLELMEGNVEFVASLGSDDKSKELKDLLTEITDMSPRLSLSEKSLKRTPSFSVNRPGEETGVTFAGIPLGHEFNSLVLAILQVSGRAPKEKQSIIDQIKKLEGSFHFETFISLTCQKCPDVVQALNLMSVINPNITHSMIDGAVFREESENIMAVPAVFLNGEEFGNGRMTIQDILSKLGSTADASEFENKEPYDVLIVGGGPASGSAAIYTARKGLRTGIVADRIGGQVNDTAGIENFITVKETTGSEFSSNLAAHIDQYDIDAMTGIRATDIEKTDEAIKVTLENGAVLESKTVIIATGAGWRKLNIPGEEQLINKGVAFCPHCDGPLFENKDVAVIGGGNSGVEAAIDLAGIVNHVTLFEFASELKADNVLQDRLRSLSNVDIKTNAKTTEVVGEDHVTGIRYEDMNTGEEHLLNLDGIFVQIGLLPNTSWLNDAVELNERGEIVIDRNNNTNVPGIFAAGDVTDQKNKQIIISMGAGANAALNAFDYIIRN”, “not soluble”.
Take “MLNTSDIGKVFPSVTAVVEKGRLRFFAKAIGENNPIYTDEAAAKDAGYESLPMPPTFFFSLKMDVPNPFENYEKVGASLAKILHANQAFVYHQSVVAGDSLTFESHIADIYDKKAGALEFLVEKTKVSNQRGQHVADMTTTLVVRNLEHHHHHH”: the “soluble on expression in E. coli” value was “not soluble”.
With “MLNVEPSFAEELRSSGVSLSATYLGSVPVVESINVMVSEMRVQVVSLVFLMA”, the “soluble on expression in E. coli” value is reported as “not soluble”.
Regarding “MLPAWGTSTEATASHAGWDGDDEGDIRAAYTEDEKKENIPPISLTSVSTNGAYPGQKRRRSESVRTLKPECPPEETQRLRQRRRISATDATQSSRTMNVIEDRKPRVNRARKSQDAPSTSTCGFETPVGTKRKSKAADSQKPPKQSKLRKIDEASTSKAVDNSSKDGKKTTKPAVTQSNRRRSGLSLRPVPIETIFSESSGRESSTEDEADVSHQQ”, the “soluble on expression in E. coli” value was “not soluble”.
With “MLPDADSKDQLVTIIQSVKPPTVPPHRSHDPANNLKRTDPYQFGSRYLEEGDDVFEFNAWDHVEPDDEFKAFAEVQYAKQRESPVSDFDKQRFNKDPAKWWNLFYKNNTSNFFKDRKWLRQEFPVLAEVTQKGAGRKVVLEVGAGAGNTAFPLITHNKNEELMVHACDFSKTAVQVMRESEHYNPKFISADVWDVTAVPDEENNGLPPGLTEGSVDVVILIFIFSALAPSQWDQAIRNVYRVLKPGGLVLFRDYGRGDLAQVRFKKGRYMDENFYVRGDGTRVYFFEKEQLEKMWGTWTPEKGLQMAEDNSIVAESEGAFDVEKIGVDRRLIVNRQRKLKMYRCWIQAHYRKRETPAAVEAEKADS”, the “soluble on expression in E. coli” value is reported as “not soluble”.
For “MLPFVFNADDDGKRVQNEEGNYDPTDHQRQMEDYYKQYEEQRVANSFHNTTGRPDLVAMQARLAETEQAIHRLNEEKKQPPPGFPIMTTPATQPEISIPRSGENKSSRSPSWAREARRSRSRSRDRRGGRSRSRSPSRRRTSRDRRDDRSSRRRRGPIINQLS”, the “soluble on expression in E. coli” value was “soluble”.
On to “MLPKAFLSRMAELLGEEFPAFLKALTEGKRTYGLRVNTLKLPPEAFQRISPWPLRPIPWCQEGFYYPEEARPGPHPFFYAGLYYIQEPSAQAVGVLLDPKPGERVLDLAAAPGGKTTHLAARMGGKGLLLANEVDGKRVRGLLENVERWGAPLAVTQAPPRALAEAFGTYFHRVLLDAPCSGEGMFRKDREAARHWGPSAPKRMAEVQKALLAQASRLLGPGGVLVYSTCTFAPEENEGVVAHFLKAHPEFRLEDARLHPLFAPGVPEWGEGNPELLKTARLWPHRLEGEGHFLARFRKEGGAWSTPRLERPSPLSQEALRAFRGFLEEAGLTLEGPVLDRAGHLYLLPEGLPTLLGLKAPAPGLYLGKVQKGRFLPARALALAFGATLPWPEGLPRLALTPEDPRALAFATGEGVAWEGEDHPLALVVLKTAAGEFPLDFGKAKRGVLRPVGVGLRSHHHHHH”, for which the “soluble on expression in E. coli” value is listed as “soluble”.
